Four molecules from patent US20160272683A1 (Novo Nordisk, published 2016) can be followed below.

T1: human calcitonin receptor (human, UniProt P30988 25-474)
T1 construct: whole, on cells; also called hCT-R; hCTR
T1 sequence (looked up): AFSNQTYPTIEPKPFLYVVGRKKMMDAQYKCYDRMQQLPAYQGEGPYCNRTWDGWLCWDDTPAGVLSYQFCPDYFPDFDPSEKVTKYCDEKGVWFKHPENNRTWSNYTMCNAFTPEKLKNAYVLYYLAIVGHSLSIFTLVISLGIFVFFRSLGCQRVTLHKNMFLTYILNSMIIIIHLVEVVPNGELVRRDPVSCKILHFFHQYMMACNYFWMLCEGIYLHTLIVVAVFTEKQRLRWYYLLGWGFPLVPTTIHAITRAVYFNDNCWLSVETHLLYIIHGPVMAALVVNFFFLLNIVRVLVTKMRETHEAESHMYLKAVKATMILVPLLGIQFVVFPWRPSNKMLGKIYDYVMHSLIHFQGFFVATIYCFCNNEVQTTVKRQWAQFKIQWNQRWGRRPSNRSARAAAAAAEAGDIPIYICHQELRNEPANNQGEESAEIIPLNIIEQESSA

B1: [N-terminal(C20 diacid-gGlu), des1, 4G, 9T, 15Q, 21Q, 23Y, 25P, 30S, 31G, 32T, 33Y]mimylin (peptide)
peptide: {C20 diacid-γGlu}-ASGLSTATLGRLSQELHELQTYPPTETGSGTY-NH2
SMILES: CC(C)C[C@H](NC(=O)CNC(=O)[C@H](CO)NC(=O)[C@H](C)NC(=O)CC[C@H](NC(=O)CCCCCCCCCCCCCCCCCCC(=O)O)C(=O)O)C(=O)N[C@@H](CO)C(=O)N[C@H](C(=O)N[C@@H](C)C(=O)N[C@H](C(=O)N[C@@H](CC(C)C)C(=O)NCC(=O)N[C@@H](CCCNC(=N)N)C(=O)N[C@@H](CC(C)C)C(=O)N[C@@H](CO)C(=O)N[C@@H](CCC(N)=O)C(=O)N[C@@H](CCC(=O)O)C(=O)N[C@@H](CC(C)C)C(=O)N[C@@H](Cc1c[nH]cn1)C(=O)N[C@@H](CCC(=O)O)C(=O)N[C@@H](CC(C)C)C(=O)N[C@@H](CCC(N)=O)C(=O)N[C@H](C(=O)N[C@@H](Cc1ccc(O)cc1)C(=O)N1CCC[C@H]1C(=O)N1CCC[C@H]1C(=O)N[C@H](C(=O)N[C@@H](CCC(=O)O)C(=O)N[C@H](C(=O)NCC(=O)N[C@@H](CO)C(=O)NCC(=O)N[C@H](C(=O)N[C@@H](Cc1ccc(O)cc1)C(N)=O)[C@@H](C)O)[C@@H](C)O)[C@@H](C)O)[C@@H](C)O)[C@@H](C)O)[C@@H](C)O
B2: [N-terminal(C20 diacid-gGlu), des1, 4G, 9T, 15Q, 21Q, 23Y, 30S, 31G, 32T, 33Y]mimylin (peptide)
peptide: {C20 diacid-γGlu}-ASGLSTATLGRLSQELHELQTYPRTETGSGTY-NH2
B3: [N-terminal(C20 diacid-gGlu), des1, 4G, 15Q, 21Q, 23Y, 25H, 30S, 31G, 32T, 33Y]mimylin (peptide)
peptide: {C20 diacid-γGlu}-ASGLSTAALGRLSQELHELQTYPHTETGSGTY-NH2
SMILES: CC(C)C[C@H](NC(=O)CNC(=O)[C@H](CO)NC(=O)[C@H](C)NC(=O)CC[C@H](NC(=O)CCCCCCCCCCCCCCCCCCC(=O)O)C(=O)O)C(=O)N[C@@H](CO)C(=O)N[C@H](C(=O)N[C@@H](C)C(=O)N[C@@H](C)C(=O)N[C@@H](CC(C)C)C(=O)NCC(=O)N[C@@H](CCCNC(=N)N)C(=O)N[C@@H](CC(C)C)C(=O)N[C@@H](CO)C(=O)N[C@@H](CCC(N)=O)C(=O)N[C@@H](CCC(=O)O)C(=O)N[C@@H](CC(C)C)C(=O)N[C@@H](Cc1c[nH]cn1)C(=O)N[C@@H](CCC(=O)O)C(=O)N[C@@H](CC(C)C)C(=O)N[C@@H](CCC(N)=O)C(=O)N[C@H](C(=O)N[C@@H](Cc1ccc(O)cc1)C(=O)N1CCC[C@H]1C(=O)N[C@@H](Cc1c[nH]cn1)C(=O)N[C@H](C(=O)N[C@@H](CCC(=O)O)C(=O)N[C@H](C(=O)NCC(=O)N[C@@H](CO)C(=O)NCC(=O)N[C@H](C(=O)N[C@@H](Cc1ccc(O)cc1)C(N)=O)[C@@H](C)O)[C@@H](C)O)[C@@H](C)O)[C@@H](C)O)[C@@H](C)O
B4: [N-terminal(C20 diacid-gGlu), des1, 4G, 9V, 15Q, 21Q, 23Y, 30S, 31A, 32T, 33Y]mimylin (peptide)
peptide: {C20 diacid-γGlu}-ASGLSTAVLGRLSQELHELQTYPRTETGSATY-NH2
SMILES: CC(C)C[C@H](NC(=O)CNC(=O)[C@H](CO)NC(=O)[C@H](C)NC(=O)CC[C@H](NC(=O)CCCCCCCCCCCCCCCCCCC(=O)O)C(=O)O)C(=O)N[C@@H](CO)C(=O)N[C@H](C(=O)N[C@@H](C)C(=O)N[C@H](C(=O)N[C@@H](CC(C)C)C(=O)NCC(=O)N[C@@H](CCCNC(=N)N)C(=O)N[C@@H](CC(C)C)C(=O)N[C@@H](CO)C(=O)N[C@@H](CCC(N)=O)C(=O)N[C@@H](CCC(=O)O)C(=O)N[C@@H](CC(C)C)C(=O)N[C@@H](Cc1c[nH]cn1)C(=O)N[C@@H](CCC(=O)O)C(=O)N[C@@H](CC(C)C)C(=O)N[C@@H](CCC(N)=O)C(=O)N[C@H](C(=O)N[C@@H](Cc1ccc(O)cc1)C(=O)N1CCC[C@H]1C(=O)N[C@@H](CCCNC(=N)N)C(=O)N[C@H](C(=O)N[C@@H](CCC(=O)O)C(=O)N[C@H](C(=O)NCC(=O)N[C@@H](CO)C(=O)N[C@@H](C)C(=O)N[C@H](C(=O)N[C@@H](Cc1ccc(O)cc1)C(N)=O)[C@@H](C)O)[C@@H](C)O)[C@@H](C)O)[C@@H](C)O)C(C)C)[C@@H](C)O

Numbered stars: 1 amine (or outer) side, 2 acyl side, 3 side chain; on linkers, the order of the positions; unused ones are H or OH. * marks the point of attachment. C20 diacid = O=C(O)CCCCCCCCCCCCCCCCCCC(=O)*; γGlu = O=C(O)[C@H](CCC(=O)[*:2])N[*:1]

In this assay the target is T1, human calcitonin receptor. The assay can be described thus: whole-cell competition vs 125I-human calcitonin (Assay VIIa). Summed up:
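BHK tk'ts 13 cells stably co-expressing human calcitonin receptor and a CRE-luciferase reporter, seeded overnight at 37 °C. Bound tracer counted by scintillation after cold HBSS washes and NaOH/SDS lysis; IC₅₀ from one-site competition fit taken as receptor affinity.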
Consider B1, for which the 50% inhibitory concentration (IC50) stood at 0.2 nM.

B2: the half-inhibitory concentration (IC50) was 0.312 nM.

On to B3, for which the half-maximal inhibitory concentration (IC50) was determined as 0.45 nM.

With B4, the IC50 came out at 0.318 nM.
